Test results published in article PMC10200994.

Molecular target: T1, STAT1 (unphosphorylated, wild-type), fluorophore fusion, P42224
T1 chain: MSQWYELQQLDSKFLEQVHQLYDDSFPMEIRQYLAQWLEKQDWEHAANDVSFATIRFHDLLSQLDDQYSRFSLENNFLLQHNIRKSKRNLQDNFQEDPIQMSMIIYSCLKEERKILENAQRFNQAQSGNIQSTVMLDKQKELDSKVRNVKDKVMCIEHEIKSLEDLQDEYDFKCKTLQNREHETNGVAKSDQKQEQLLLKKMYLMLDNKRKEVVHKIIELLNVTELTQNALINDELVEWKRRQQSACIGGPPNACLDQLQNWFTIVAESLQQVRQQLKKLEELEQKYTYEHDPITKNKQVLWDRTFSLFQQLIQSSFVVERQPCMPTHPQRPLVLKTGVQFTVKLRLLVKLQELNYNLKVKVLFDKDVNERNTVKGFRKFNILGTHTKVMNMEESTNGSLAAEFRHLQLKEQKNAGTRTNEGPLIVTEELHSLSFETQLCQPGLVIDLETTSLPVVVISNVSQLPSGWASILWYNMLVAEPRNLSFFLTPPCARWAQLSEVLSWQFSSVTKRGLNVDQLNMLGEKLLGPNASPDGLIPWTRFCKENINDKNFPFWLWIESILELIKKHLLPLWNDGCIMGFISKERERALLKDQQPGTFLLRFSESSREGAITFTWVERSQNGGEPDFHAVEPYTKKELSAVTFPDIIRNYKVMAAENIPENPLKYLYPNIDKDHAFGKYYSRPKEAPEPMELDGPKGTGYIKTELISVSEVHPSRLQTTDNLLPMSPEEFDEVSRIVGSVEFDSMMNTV
Assay: co-localization assay (relocalisation of a test protein by a compartment-targeted bait, fluorescence microscopy); HeLa cells co-expressing bait (STAT-NES or STAT-NLS, or wild-type STAT2 with its own export activity; green) and test protein without heterologous signal (red); no cytokine; fixed 20 h after transfection; Pearson correlation coefficient rP in cells with equimolar to 4-fold excess of bait
Details: remark: other sources report otherwise

Pearson correlation coefficient rP (co-localization): > 0.94
B1: STAT1 (unphosphorylated, wild-type), fluorophore fusion, P42224 1-750 (natural protein)
chain: T1 chain
